Data reported in patent US8624002B2, “Prostaglandin E2 binding proteins and uses thereof” (AbbVie, Inc., priority 2008, dated 2014).

Experiments:
^3H-PGE2 ELISA (binding) = experiment: ^3H-PGE2 ELISA (binding)
Method: Alternatively, prostaglandin binding was determined using a ^3H-PGE2 ELISA. Plates were coated at 50 μL/well with 5 μg/ml of goat anti-human IgG (Fc) (Thermo Scientific # 31170, Hudson, N.H.) or goat anti-mouse IgG (Fc) (Thermo Scientific # 31125, Hudson, N.H.) in PBS and incubated overnight at 4° C. The following day, plates were flicked and blotted dry. Plates were blocked with 200 μL/well of Superblock (Thermo Scientific # 37515, Hudson, N.H.) for 1 hour at room temperature. Plates were flicked and blotted dry. Monoclonal antibodies were diluted to 0.04 μg/ml in phosphate buffer solution with Tween 20 (PBST) (Abbott Bioresearch Center, Worcester, Mass.) and 10% Superblock and 50 μL of each antibody was added to each well of the pre-blocked ELISA plate at 2 ng/well and incubated for 1 hour at room temperature. Wells were washed 3 times with PBS+0.1% Tween-20. A serial 3-fold titration of ^3H-PGE2 (Perkin Elmer # NET-428, Waltham, Mass.) was prepared in PBST/10% Superblock. Fifty microliters of the ^3H-PGE2 solution was added to each well of the plate and incubated for 1 hour at room temperature. […] Plates were read using a TopCount reader (Perkin Elmer, Waltham, Mass.) with a 5 minute count delay. An EC50 number was determined using GraphPad Prism 5 (GraphPad Software, La Jolla, Calif.).

[1] = tested on: carrageenan-induced paw edema; experiment: Carrageenan-induced footpad edema model; format: in vivo, C57.BL/6 mice
Method: Carrageenan-Induced Footpad Edema is an acute rodent model of innate immune function. The in vivo efficacy of mouse anti-PGE2 antibody 2B5-8.0 is assessed in a carragenan-induced paw edema model. The induction of paw inflammation with carrageenan is performed similarly as previously described (Joseph P. Portanova, et al. J. Exp. Med. 184: 883-891 (1996)). Intradermal (ID) injection of an inflammatory agent causes a rapid influx of neutrophils and fluid edema which peaks at approximately 4 hours, followed by an influx of macrophages and monocytes which peaks at approximately 48 hours. C57.BL/6 mice (8-10-week-old, Jackson Laboratories, Bar Harbor, Me.) were injected ID in the rear footpad with 30 μL of either PBS (left) or λ-carrageenen (Sigma Aldrich, St. Louis, Mo.) in PBS (right) at a concentration of 5.0 mg/mL (150 μg/mouse). Rear footpad thickness was measured by Dyer spring caliper model #310-119 at baseline (time=0), and 4 hours post carrageenan challenge. Significant difference for paw thickness was determined by comparing mean paw swelling for each treatment group to vehicle in a Student's two-tailed t-test. Mice were given a dose titration of an anti-PGE2 antibody (2B5-8.0) intraperitonially (IP) 18 hours prior to carrageenan challenge, or Indomethacin, PO 2 hours prior to challenge. The endpoint measured was the difference in paw swelling (edema) between right and left paws 4 hours after treatment.

[2] = tested on: mouse collagen-induced arthritis; experiment: Collagen-induced arthritis; format: in vivo, DBA/J mice; settings: 8 mg/kg, 2×/week, i.p.
Method: Type II bovine collagen (lyophilized) was obtained from the University of Utah (Salt Lake City, Utah). Male DBA/J mice (8-10-week-old, Jackson Laboratories, Bar Harbor, Me.) were immunized intradermally at the base of the tail with 100 μL of emulsion containing 100 μg of type II bovine collagen dissolved in 0.1 N of acetic acid and 100 μg of heat-inactivated Mycobacterium tuberculosis H37Ra (Complete Freund's Adjuvant, Difco, Laurence, Kans.). Twenty-one days after immunization with collagen, mice were boosted IP with 1 mg of Zymosan A (Sigma, St. Louis, Mo.). Following the boost, mice were monitored daily for arthritis. Each paw was scored by the following criteria: 0=normal; 1=swelling in one site, foot, or ankle; 2=swelling in foot and ankle; and 3=ankylosis. Scores were summed for each animal, and total average of all animals in each group was expressed as MAS. In addition to clinical scores, mice were also evaluated for paw-edema using Dyer spring calipers model #310-119. […]
Micro-computed tomography was performed on a Scanco μCT-40 unit (Scanco Medical AG) at 60 kVp at 160 μA. The hind paws (stored in 70% ethanol) were secured in imaging tubes and the tarsal bone volume was measured for a 1.8-mm section of the mouse ankle from the base of the tibia to the tarsal/metatarsal joint at a resolution of 18 μm. The raw micro-computed tomography image was then analyzed using the Scanco AG μCT Evaluation program.
For histopathology analysis, formalin-fixed paws were sectioned and stained with Gills 3 hematoxylin (Richard-Allan Scientific, Kalamazoo, Mich.) and eosin with phloxine (Newcomer Supply, Middleton, Mich.). Severity of disease was evaluated histologically using the following criteria: 0=normal; 1=minimal change; 2=mild change; 3=moderate change; and 4=severe change. Scores were summed for each animal, and the total was expressed as an average of all animals in each group.
The therapeutic effects of anti-PGE2 alone was evaluated in mouse (male DBA/1J) collagen-induced arthritis, a standard preclinical model for human rheumatoid arthritis. […]

B1: 2B5-8.0: recombinant anti-PGE2 antibody from solved 2B5 sequence; VH SEQ ID NO 42, VL SEQ ID NO 43 (antibody, V domains shown)
VH: QVQLQQSGPELVRPGSSVKISCKASGYTFTKYWLGWVKQRPGHGLEWIGDIYPGYDYTHYNEKFKDKATLTVDTSSSTAYMQLSSLTSEDSAIYYCARSDGSSTYWGQGTLVTVSA
VL: DVLMTQTPLSLPVSLGDQASISCTSSQNIVHSNGNTYLEWYLQRPGQSPKLLIYKVSNRFSGVPDRFSGSGSGTVFTLKISRVEAEDLGVYYCFQVSHVPYTFGGGTKLEIKR
EC50 (^3H-PGE2 ELISA (binding)): 0.253 nM
Δ Paw Swelling (mm) ([1]; 10 mg/kg, i.p., 18 hours prior to carrageenan, 4 hours post challenge): 0.529 ± 0.04 mm
% Inhibition ([1]; 10 mg/kg, i.p., paw swelling 4 hours post challenge): 38 ± 4.6%
maximal inhibition of paw swelling ([1]; at 10 mg/kg): 40-50%
Paw Swelling (AUC) (mm # days) [2]: 8.4 ± 1.3 mm # days
Bone Volume (mm^3) ([2]; micro CT tarsal bone volume): 1.6 ± 0.1 mm^3
MAS (AUC) (Score # days) ([2]; treatment after disease onset): 57.4 ± 6.7 Score # days
